Laboratory results taken from article PMC11748629, “Unidirectional MCM translocation away from ORC drives origin licensing” (Nature Communications, 2025).

Tests used:
Mcm4 = target: T1, Mcm4 (Saccharomyces cerevisiae, UniProt P30665 1-933); experiment: cryo-EM structure; OC1M^Mcm5RA: 30 nM MH-ARS1-MH DNA, 60 nM ORC, 90 nM Cdc6, 60 nM MCM-Cdt1 (Mcm5 R549A), 2 mM ATP; same buffer; 30 °C, 30 min; conformer 1 at 3.7 Å, conformer 2 at 3.4 Å (Orc1 ATPase domain seen only in conformer 1); details: both partners purified
T1 construct: Mcm4, S. cerevisiae; Subunit of m4 and m7, written alone for the contacts seen in the structures; also called Mcm4 subunit of MCM; source: S. cerevisiae strains yGC216 and yGC226, purified as a subunit of MCM-Cdt1
T1 sequence: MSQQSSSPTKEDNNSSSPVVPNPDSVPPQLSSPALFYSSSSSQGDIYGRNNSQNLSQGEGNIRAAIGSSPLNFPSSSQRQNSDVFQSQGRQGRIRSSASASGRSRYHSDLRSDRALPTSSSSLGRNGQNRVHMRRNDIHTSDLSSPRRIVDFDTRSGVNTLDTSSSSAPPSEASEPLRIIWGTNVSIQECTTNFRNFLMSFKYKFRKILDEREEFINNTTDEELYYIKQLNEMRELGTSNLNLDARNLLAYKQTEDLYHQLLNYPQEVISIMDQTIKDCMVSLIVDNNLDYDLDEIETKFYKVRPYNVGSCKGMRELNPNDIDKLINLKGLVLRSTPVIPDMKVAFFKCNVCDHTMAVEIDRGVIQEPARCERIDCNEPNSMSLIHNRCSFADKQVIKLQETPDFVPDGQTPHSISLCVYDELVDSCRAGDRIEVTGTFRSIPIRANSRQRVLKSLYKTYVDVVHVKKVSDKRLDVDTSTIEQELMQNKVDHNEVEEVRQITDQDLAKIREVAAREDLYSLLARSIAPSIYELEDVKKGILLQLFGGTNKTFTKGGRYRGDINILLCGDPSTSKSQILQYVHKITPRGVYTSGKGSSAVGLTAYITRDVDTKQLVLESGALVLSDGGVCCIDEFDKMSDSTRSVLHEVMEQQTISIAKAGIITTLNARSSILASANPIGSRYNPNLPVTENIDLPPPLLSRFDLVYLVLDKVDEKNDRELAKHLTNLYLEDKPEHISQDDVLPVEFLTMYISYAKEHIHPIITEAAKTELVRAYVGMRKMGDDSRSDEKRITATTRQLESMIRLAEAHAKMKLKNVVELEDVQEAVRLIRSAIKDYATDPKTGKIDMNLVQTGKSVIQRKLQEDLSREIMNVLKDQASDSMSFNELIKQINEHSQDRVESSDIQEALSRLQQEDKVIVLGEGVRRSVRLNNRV

Orc1 = target: T2, Orc1 (Saccharomyces cerevisiae, UniProt P54784 1-914); experiment: cryo-EM structure; OCCM^Mcm2RA: 30 nM MH-ARS1-MH DNA, 60 nM ORC, 90 nM Cdc6, 60 nM MCM-Cdt1 (Mcm2 R676A), 3 mM ATP; 25 mM HEPES pH 7.6, 100 mM potassium chloride, 10 mM magnesium acetate, 1 mM DTT; 30 °C, 30 min; 3.3 Å consensus, 3.2 Å local refinements; details: both partners purified
T2 construct: Orc1, S. cerevisiae; Subunit of m1, written alone for the contacts seen in the structures; also called Orc1 subunit of ORC; source: S. cerevisiae strain ySD-ORC, purified as a subunit of ORC
T2 sequence: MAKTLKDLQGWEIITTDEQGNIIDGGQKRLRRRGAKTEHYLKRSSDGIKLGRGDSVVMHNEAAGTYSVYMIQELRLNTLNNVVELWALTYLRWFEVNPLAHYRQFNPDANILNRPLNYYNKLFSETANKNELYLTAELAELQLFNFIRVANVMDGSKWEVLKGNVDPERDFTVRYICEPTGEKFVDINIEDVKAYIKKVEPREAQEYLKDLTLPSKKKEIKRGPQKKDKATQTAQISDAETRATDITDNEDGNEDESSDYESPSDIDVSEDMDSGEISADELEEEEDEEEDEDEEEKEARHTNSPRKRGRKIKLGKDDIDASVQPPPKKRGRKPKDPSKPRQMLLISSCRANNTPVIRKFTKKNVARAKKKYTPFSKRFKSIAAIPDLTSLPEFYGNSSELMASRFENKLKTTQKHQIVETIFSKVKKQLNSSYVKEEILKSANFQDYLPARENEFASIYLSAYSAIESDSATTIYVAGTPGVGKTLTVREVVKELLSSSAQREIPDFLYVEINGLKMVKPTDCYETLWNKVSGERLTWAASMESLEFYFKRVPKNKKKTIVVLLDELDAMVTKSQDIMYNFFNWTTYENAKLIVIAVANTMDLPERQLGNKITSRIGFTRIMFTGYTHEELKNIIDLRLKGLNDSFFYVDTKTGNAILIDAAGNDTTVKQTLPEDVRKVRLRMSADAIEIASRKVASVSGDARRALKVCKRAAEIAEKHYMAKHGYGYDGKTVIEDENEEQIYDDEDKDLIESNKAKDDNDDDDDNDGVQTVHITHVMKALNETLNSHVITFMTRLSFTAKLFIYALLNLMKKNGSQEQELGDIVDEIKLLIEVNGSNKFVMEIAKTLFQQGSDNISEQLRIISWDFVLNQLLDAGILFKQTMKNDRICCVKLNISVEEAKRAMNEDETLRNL

- binding result (Mcm4): binds
- binding result (Orc1): binds
B1: Mcm7 (natural protein, Saccharomyces cerevisiae)
chain: MSAALPSIQLPVDYNNLFNEITDFLVTFKQDTLSSDATRNENEDENLDAENIEQHLLEKGPKYMAMLQKVANRELNSVIIDLDDILQYQNEKFLQGTQADDLVSAIQQNANHFTELFCRAIDNNMPLPTKEIDYKDDVLDVILNQRRLRNERMLSDRTNEIRSENLMDTTMDPPSSMNDALREVVEDETELFPPNLTRRYFLYFKPLSQNCARRYRKKAISSKPLSVRQIKGDFLGQLITVRGIITRVSDVKPAVEVIAYTCDQCGYEVFQEVNSRTFTPLSECTSEECSQNQTKGQLFMSTRASKFSAFQECKIQELSQQVPVGHIPRSLNIHVNGTLVRSLSPGDIVDVTGIFLPAPYTGFKALKAGLLTETYLEAQFVRQHKKKFASFSLTSDVEERVMELITSGDVYNRLAKSIAPEIYGNLDVKKALLLLLVGGVDKRVGDGMKIRGDINVCLMGDPGVAKSQLLKAICKISPRGVYTTGKGSSGVGLTAAVMKDPVTDEMILEGGALVLADNGICCIDEFDKMDESDRTAIHEVMEQQTISISKAGINTTLNARTSILAAANPLYGRYNPRLSPLDNINLPAALLSRFDILFLMLDIPSRDDDEKLAEHVTYVHMHNKQPDLDFTPVEPSKMREYIAYAKTKRPVMSEAVNDYVVQAYIRLRQDSKREMDSKFSFGQATPRTLLGIIRLSQALAKLRLADMVDIDDVEEALRLVRVSKESLYQETNKSKEDESPTTKIFTIIKKMLQETGKNTLSYENIVKTVRLRGFTMLQLSNCIQEYSYLNVWHLINEGNTLKFVDDGTMDTDQEDSLVSTPKLAPQTTASANVSAQDSDIDLQDA
notes: Mcm7, S. cerevisiae; Subunit of m4 and m7, written alone for the contacts seen in the structures; also called Mcm7 subunit of MCM; source: S. cerevisiae strains yGC216 and yGC226, purified as a subunit of MCM-Cdt1
